Experimental data as given in patent US20240425606A1, “ANTI-IL-11RA ANTIBODIES” (Lassen Therapeutics 1, Inc., priority 2021, published 2024).

T1: human IL-11Rα (human, UniProt Q14626 23-363, limits assumed)
T1 construct: Protein coated on ELISA plates and used in solution for BLI; also called hIL-11Rα; hIL-11R
T1 sequence: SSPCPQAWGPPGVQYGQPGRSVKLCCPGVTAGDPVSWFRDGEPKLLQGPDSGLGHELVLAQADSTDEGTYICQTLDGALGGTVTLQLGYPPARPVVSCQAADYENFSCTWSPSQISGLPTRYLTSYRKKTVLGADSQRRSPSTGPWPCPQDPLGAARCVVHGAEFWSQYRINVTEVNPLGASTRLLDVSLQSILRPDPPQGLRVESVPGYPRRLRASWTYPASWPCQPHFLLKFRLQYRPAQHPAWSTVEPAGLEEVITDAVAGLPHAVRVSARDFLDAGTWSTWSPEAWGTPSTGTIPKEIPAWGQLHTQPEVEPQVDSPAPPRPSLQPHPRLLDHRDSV

T2: IL-11R on STAT3 Reporter (Luciferase)-HEK293 cells (UniProt Q14626 23-422)
T2 sequence (looked up): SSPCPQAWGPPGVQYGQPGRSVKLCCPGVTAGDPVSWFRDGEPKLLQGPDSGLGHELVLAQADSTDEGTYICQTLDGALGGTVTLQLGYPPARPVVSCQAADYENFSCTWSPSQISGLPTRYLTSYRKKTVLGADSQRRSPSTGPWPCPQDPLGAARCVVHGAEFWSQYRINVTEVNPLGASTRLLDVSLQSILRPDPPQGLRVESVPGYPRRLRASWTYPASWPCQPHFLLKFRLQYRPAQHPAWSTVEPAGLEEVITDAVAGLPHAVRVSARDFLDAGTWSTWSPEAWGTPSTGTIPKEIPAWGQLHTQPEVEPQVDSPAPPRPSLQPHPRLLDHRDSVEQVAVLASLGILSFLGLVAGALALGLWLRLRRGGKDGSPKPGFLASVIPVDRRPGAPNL


Tests used:
[1] = target: T1, human IL-11Rα; assay: competitive ELISA, IL-11R coated on plate; competitor: biotinylated 8E2 (0.1 µg/mL)
Experimental: (§1) Relative binding activity of the antibodies was tested by competitive ELISA using biotinylated mAbs 8E2 or TS7. Antibodies 8E2 and TS7 were biotinylated using sulfo-NHS Biotin (Thermo Fisher) per the manufacturer's instructions. IL-11R was coated onto ELISA plates (Nunc, MaxiSorp) at 2 μg/mL in PBS, and plates were blocked with 2% BSA in PBS. After washing the plate with water, antibodies to be tested were titrated across the plate in a final volume of 90 μL followed by addition of 10 μL of biotinylated 8E2 or biotinylated TS7, as indicated in Table E1 (0.1 μg/mL final concentration) to each well. Plates were incubated for 2 hours on a plate-shaker, followed by washing and addition of 100 μL/well of streptavidin-HRP (Jackson ImmunoResearch, 1/1000 dilution). After a further 1 hour incubation, plates were washed, developed with Ultra-TMB HRP substrate (Thermo Fisher), and stopped by the addition of 50 μL/well of 2 M sulfuric acid. Plates were read at 450 nm on an iD5 plate reader (Molecular Devices).

[2] = target: T2, IL-11R on STAT3 Reporter …; assay: cell-based or functional assay
[3] = target: T1, human IL-11Rα; assay: competitive ELISA, IL-11R coated on plate; competitor: biotinylated TS7 (0.1 µg/mL)
Experimental: as §1

[4] = target: T1, human IL-11Rα; assay: BLI (Octet RED96e), mAb on protein G biosensors, hIL-11Rα in solution
Experimental: Association was carried out in the presence of a 2-fold dilution series of hIL-11Rα and was allowed to proceed for 120 seconds; dissociation was measured for 300 to 1200 seconds.

| IC50 [1] | IC50, STAT3 luciferase reporter assay (HEK293), inhibiting IL-11, Assay 1 [2] | IC50, STAT3 luciferase reporter assay (HEK293), inhibiting IL-11, Assay 2 [2] | IC50, STAT3 luciferase reporter assay (HEK293), inhibiting IL-11, Mean [2] | IC50 [3] | Kd [4] | koff [4] | kon [4] | Binder |
| --- | --- | --- | --- | --- | --- | --- | --- | --- |
| > 30 µg/mL |  |  |  |  |  |  |  | mAb2 (antibody, V domains shown, Expressed as human IgG4 (S228P EU)) VH: EVQLLESGGGLVQPGGSLRLSCAASGFTFSWYSMTWVRQAPGKGLEWVSSIVPSGGHTQYADSVKGRFTISRDNSKNTLYLQMNSLRAEDTAVYYCAKGPDWGSFDLWGRGTLVTVSS VL: DIQMTQSPSSLSASVGDRVTITCQASQDINNYLNWYQQKPGKAPKLLIYDASNLQTGVPSRFSGSGSGTDFTFTISSLQPEDIATYYCQQHEFQSPTFGPGTKVDIK |
|  | 0.39 µg/mL | 0.28 µg/mL | 0.34 µg/mL | 2 µg/mL | < 1 pM | < 1e-07 s⁻¹ | 33700 M⁻¹ s⁻¹ | mAb14 (antibody, V domains shown, Expressed as human IgG4 (S228P EU)) VH: EVQLLESGGGLVQPGGSLRLSCAASGFTFSWYSMTWVRQAPGKGLEWVSSIVPYGDLTQYAESVKGRFTISRDNSKNTLYLQMNSLRAEDTAVYYCAKGPGWGSFDLWGRGTLVTVSS VL: DIQMTQSPSSLSASVGDRVTITCQASQDINNYLNWYQQKPGKAPKLLIYDASNLQTGVPSRFSGSGSGTDFTFTISSLQPEDIATYYCQQHESQSPTFGPGTKVDIK |
| 2.8 µg/mL |  |  |  |  |  |  |  | mAb3 (antibody, V domains shown, Expressed as human IgG4 (S228P EU)) VH: EVQLLESGGGLVQPGGSLRLSCAASGFTFSWYSMTWVRQAPGKGLEWVSSIVPYGDLTQYADSVKGRFTISRDNSKNTLYLQMNSLRAEDTAVYYCAKGPDWGSFDLWGRGTLVTVSS VL: DIQMTQSPSSLSASVGDRVTITCQASQDINNYLNWYQQKPGKAPKLLIYDASNLQTGVPSRFSGSGSGTDFTFTISSLQPEDIATYYCQQHESQSPTFGPGTKVDIK |
| 5.5 µg/mL |  |  |  |  |  |  |  | mAb4 (antibody, V domains shown, Expressed as human IgG4 (S228P EU)) VH: EVQLLESGGGLVQPGGSLRLSCAASGFTFSWYSMTWVRQAPGKGLEWVSSIVPYGDLTQYADSVKGRFTISRDNSKNTLYLQMNSLRAEDTAVYYCAKGPDWGSFDLWGRGTLVTVSS VL: DIQMTQSPSSLSASVGDRVTITCQASQDINNYLNWYQQKPGKAPKLLIYDASNLQTGVPSRFSGSGSGTDFTFTISSLQPEDIATYYCQQHEFQSPTFGPGTKVDIK |
|  | 0.38 µg/mL | 0.33 µg/mL | 0.36 µg/mL | 1.7 µg/mL | < 1 pM | < 1e-07 s⁻¹ | 84000 M⁻¹ s⁻¹ | mAb15 (antibody, V domains shown, Expressed as human IgG4 (S228P EU)) VH: EVQLLESGGGLVQPGGSLRLSCAASGFTFSWYSMTWVRQAPGKGLEWVSSIVPYGDLTQYADSVKGRFTISRDNSKNTLYLQMNSLRAEDTAVYYCAKGPGWGSFDLWGRGTLVTVSS VL: DIQMTQSPSSLSASVGDRVTITCQASQDINNYLNWYQQKPGKAPKLLIYDASNLQTGVPSRFSGSGSGTDFTFTISSLQPEDIATYYCQQHETQTPTFGPGTKVDIK |
| 1.5 µg/mL | 11 µg/mL | 0.39 µg/mL | 5.7 µg/mL |  | < 1 pM | < 1e-07 s⁻¹ | 800000 M⁻¹ s⁻¹ | mAb6 (antibody, V domains shown, Expressed as human IgG4 (S228P EU)) VH: EVQLLESGGGLVQPGGSLRLSCAASGFTFSWYSMTWVRQAPGKGLEWVSSIVPYGDLTQYADSVKGRFTISRDNSKNTLYLQMNSLRAEDTAVYYCAKGPGWGSFDLWGRGTLVTVSS VL: DIQMTQSPSSLSASVGDRVTITCQASQDINNYLNWYQQKPGKAPKLLIYDASNLQTGVPSRFSGSGSGTDFTFTISSLQPEDIATYYCQQHEFQSPTFGPGTKVDIK |
|  | 0.05 µg/mL | 0.19 µg/mL | 0.12 µg/mL | 2.3 µg/mL | < 1 pM | < 1e-07 s⁻¹ | 66700 M⁻¹ s⁻¹ | mAb13 (antibody, V domains shown, Expressed as human IgG4 (S228P EU)) VH: EVQLLESGGGLVQPGGSLRLSCAASGFTFSWYSMTWVRQAPGKGLEWVSSIVPYGDLTQYADSVKGRFTISRDNSKNTLYLQMNSLRAEDTAVYYCAKPEDWGRFDLWGRGTLVTVSS VL: DIQMTQSPSSLSASVGDRVTITCQASQDINNYLNWYQQKPGKAPKLLIYDASNLQTGVPSRFSGSGSGTDFTFTISSLQPEDIATYYCQQHESQSPTFGPGTKVDIK |
